For this assay, the target named is T1, human Mullerian inhibiting substance Type II receptor (MISIIR) (human, UniProt Q16671 18-573).
T1 construct: whole, on cells; also called MIS type II receptor; AMHR2
T1 sequence (looked up): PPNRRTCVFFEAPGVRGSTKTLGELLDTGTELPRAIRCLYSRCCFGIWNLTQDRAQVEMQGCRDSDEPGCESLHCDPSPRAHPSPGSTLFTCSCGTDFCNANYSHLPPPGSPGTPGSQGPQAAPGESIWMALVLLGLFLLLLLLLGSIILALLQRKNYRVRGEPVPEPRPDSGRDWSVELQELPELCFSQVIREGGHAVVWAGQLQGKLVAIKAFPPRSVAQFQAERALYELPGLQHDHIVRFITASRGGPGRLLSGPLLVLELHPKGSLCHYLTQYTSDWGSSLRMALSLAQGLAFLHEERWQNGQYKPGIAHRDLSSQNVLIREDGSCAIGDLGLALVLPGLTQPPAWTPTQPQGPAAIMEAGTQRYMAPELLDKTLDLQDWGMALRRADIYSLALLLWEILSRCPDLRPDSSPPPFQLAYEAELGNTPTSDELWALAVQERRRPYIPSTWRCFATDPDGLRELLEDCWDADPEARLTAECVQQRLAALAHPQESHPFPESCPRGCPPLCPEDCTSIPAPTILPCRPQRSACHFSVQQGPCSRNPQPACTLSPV
Briefly: inferred by the filing from the reporter gene assay (block of MIS-induced signaling); no direct binding assay. As to the method: FIG. 3 provides a schematic of a reporter gene assay to measure MISIIR signaling. The Tlx-2 (T-cell leukemia, homeobox 2) gene is a downstream target of BMP and MIS signaling (Tang et al. (1998) Development 125:1877-1887). Genes encoding mouse TLX2-luciferase and human MISIIR were stably transfected into P19 mouse neuroblastoma cells that normally lack MISIIR.
The ability of the new hybrid scFv molecules to block MIS binding to MISIIR was determined using a reporter gene assay in which signaling through MISIIR on the surface of […] cells triggers luminescence in the cells (FIG. 3). MIS was added to the cells in the presence or absence of the different scFv molecules and the resulting luminescence was measured (FIG. 4).

B1: RAD-1-0003 (E3 1DQH3) scFv (scFv)
scFv: MAQVQLQQSGPGLVKPSQTLSLTCAISGDSVSSKSATWNWIRQSPSRGLEWLGRTYYRSKWYNDYAESVKSRITIKPDTTKNHFSLQLKSVTPEDTAVYYCASPPGGKLLISLSEERISAHHVPMDYWGQGTLVTVSSSASGAELGGGGSGGGGSGGGGSTSQAVLTQPSSASGTPGQRVTISCSGSSSNIGAGYDVHWYQQLPGTAPKLLIYGNSNRPSGVPDRFSGSKSGTSASLAITGLQAEDEADYYCQSYDSSLSAHNYVFGTGTKVTLLG
notes: Hybrid scFv on the E3 framework with the MIS loop in the heavy chain CDR3, in a different orientation than RAD-1-0001
In the case of B1, the binding result was “binds”.

The record behind these values is US20140234213A1 (FOX CHASE CANCER CENTER, published 2014).
